According to the nanobody polyreactivity screen of Harvey et al. (2022):

test: yeast display, Sf9 membrane polyspecificity reagent, FACS + sequencing; frameworks hold sequencing errors
How it was run: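 Nanobodies from a synthetic yeast display library (Saccharomyces cerevisiae BJ5465), induced 36–48 hours with galactose, were stained 1 hour at 4 °C with 10% biotinylated, detergent-solubilized Sf9 membrane reagent, enriched on streptavidin microbeads, then FACS-sorted. Anti-HA (expression) and streptavidin (reagent binding) fluorescence set low and high (top ~1%) gates. Polyreactivity labels come from the gate of origin. Genes were colony-PCR amplified, MiSeq 2 × 250 sequenced and filtered by CDR length.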

Row | Sequence | polyreactivity (PSR sort gate)
1 | QVQLVESGGGLVQAGGSLRLSCAASGSTFARNAMGWYRQAPGKERELVAAITNAGDTNYADSVKGRFTISRDNAKNTVYLQMNSLKPEDTAVYYCAAEPILIDEYWGQGTQVTVSS | low polyreactivity
2 | QVQLVESGGGLVQAGGSLRLSCAASGSTFARYAMGWYRQAPGKERELVAAISGGGGSTYYADSVKGRFTISRDNAKNTVYLQMNSLKPEDTAVYYCAKLLARGNRYDSWGQGTQVTVSS | high polyreactivity
3 | QVQLVESGGGLVQAGGSLRLSCAASGSTFARYAMGWYRQAPGKERELVAAISRRGGSTYYADSVKGRFTISRDNAKNTVYLQMNSLKPEDTAVYYCAARYGIISSFEYDYWGQGTQVTVSS | high polyreactivity
4 | QVQLVESGGGLVQAGGSLRLSCAASGSTFARYAMGWYRQAPGKERELVAAISRSGSNTYYADSVKGRFTISRDNAKNTVYLQMNSLKPEDTAVYYCAAVQPGQRTVAYDYWGQGTLVTVSS | high polyreactivity
5 | QVQLVESGGGLVQAGGSLRLSCAASGSTFASNAMGWYRQAPGKERELVAAISKRGGSTYYADSVKGRFTISRDNAKNTVYLQMNSLKPEDTSVYYCNADWTRSQYDYWGQGTQVTVSS | high polyreactivity
6 | QVQLVESGGGLVQAGGSLRLSCAASGSTFATNTMGWYRQAPGKERELVAAITSGGSTYYADSVKGRFTISRDNAKNTVYLQMNSLKPEDTAVYYCAVRGVYYYHRAFDYWGQGTQVTVSS | high polyreactivity
7 | QVQLVESGGGLVQAGGSLRLSCAASGSTFATYTMGWYRQAPGKERELVAAISSRGGSTYYADSVKGRFTISRDNAKNTGYLQMNSLKPEDTAVYYCNARRSTDPARYYWGQGSQVTVSS | high polyreactivity
8 | QVQLVESGGGLVQAGGSLRLSCAASGSTFATYTMGWYRQAPGKERELVATISRSGTTTYYADSVKGRFTISRDNAKYTVYLQMNSLKPEDTAVYYCNTLRAYWTYHFYGAVRDGYDYWGQGTQVTVST | low polyreactivity
9 | QVQLVESGGGLVQAGGSLRLSCAASGSTFAVNAMRSYRQAPGKEREFVAAISFGTGSTYYADSVKGRFTISRDNAKKTVYLQMNSLKPEDTAVYYCNAEASGYYWWWGYDYWGQGTQVTVSS | low polyreactivity
10 | QVQLVESGGGLVQAGGSLRLSCAASGSTFAWYAMGWYRQAPGKERELVAAISRTGRTYYADSVKGRFTISRDNAKNTVYLQMNSLKPEDTAVYYCAARIERFYRDQRYDYWGQGTQVTVSS | high polyreactivity
11 | QVQLVESGGGLVQAGGSLRLSCAASGSTFAYNAMGWYRQAPGKERELVAAISWGDGITYYADSVKGRFTISRDNAKNTVYLQMNSLKPEDTAVITRDFGYWGQGTQVTVSS | low polyreactivity
12 | QVQLVESGGGLVQAGGSLRLSCAASGSTFAYNAMGWYRQAPGKERELVASISWTGGSTYYADSVKGRFTISRDNAKNTVYLQMNSLKPEDTAVYYCAVDWLEGYEFDSWGQGTQVTVSS | low polyreactivity
13 | QVQLVESGGGLVQAGGSLRLSCAASGSTFAYYAMGWYRQAPGKERELVAAIDDTGSTNYADSVKGRFTISRDNAKYTVFLQMNSLKPEYTAVYYCNAQPDGTYDYWGQGTQVTVSS | low polyreactivity
14 | QVQLVESGGGLVQAGGSLRLSCAASGSTFAYYTMGWYRQAPGKERELVAAISKSGGSTTYADSVKGRFTISRDNAKNTVYLQMNSLKPEDTAVYYCAAYDRVENYNYWGQGTQVTVSS | high polyreactivity
15 | QVQLVESGGGLVQAGGSLRLSCAASGSTFCFYAMGWYRQSPGKERELVATITIGGRTYADSVKGRFTISRDNAKNTLYLQMNSLKPEDTAVYYCNARNHVQVLFRRDYWVQGTQVTVSS | low polyreactivity
16 | QVQLVESGGGLVQAGGSLRLSCAASGSTFCINAMGWYRQAPGKERDLVAAISSRGGSTYYADSVKGRFTISRDNAKNTVYLQMNSLKPEDTAVYYCAAEFAVSFYWSWLGQDYNYWGQGTQVTVSS | high polyreactivity
17 | QVQLVESGGGLVQAGGSLRLSCAASGSTFDAYAMGWSRQAPGKERELVAAMTNAGSTNYADSVKGRFTISRDNAKNTVYLQMNSLKPEDTAVYYCATDWYHRYLDGRYDYLGQGTQVTVSS | low polyreactivity
18 | QVQLVESGGGLVQAGGSLRLSCAASGSTFDAYAMGWYRQAPGKEWELVAAISTRGGRTDYADSVKGRFTISRDNAKNTVYLQMNSRKPEDTAVYYCTAVGARVNVRGTPAFDSWGQGTQVTVSS | high polyreactivity
19 | QVQLVESGGGLVQAGGSLRLSCAASGSTFDDNAMGWYRQAPGKERELVAAITYRGTRTYYADSVKGRFTISRDNAKNTVYLQMNSLKPEDTAVYYCAADSESVGYEYWGQGTQVTVSS | high polyreactivity
20 | QVQLVESGGGLVQAGGSLRLSCAASGSTFDDYAMGWYRQAPGKEREFVAAITYGGGNTYYADSVKGRFTISRDNAKNTVYLQMNSLKPEDTAVYYCNKLSRGFSPKYGYWGQGTQVTVSS | high polyreactivity
21 | QVQLVESGGGLVQAGGSLRLSCAASGSTFDFYAMGWYRQAPGKERELVARISSGGGRTYYADSVKGRFTISRDNAKNTVYLQMNSLKPEDTAVYYCATDYPWIFGHFLMDYWGQGTQVTVSS | low polyreactivity

Row | Sequence | polyreactivity (PSR sort gate)
22 | QVQLVESGGGLVQAGGSLRLSCAASGSTFDGNAMGWYRQAPGKERELVAAISSSGGSTYYADSVKGRFTISRDNAKNTVYLQMNSLKPEDTAVYYCAAGGWSTLLSWFYRRYDYWGQGTQVTVSS | high polyreactivity
23 | QVQLVESGGGLVQAGGSLRLSCAASGSTFDGNAMGWYRQAPGKERELVAAITSGGSTNYADSVKGRFTISRDNAKNTVYLQMNSLKPEDTAVYYCAADTVSFSILYDYWGQGTQVTVSS | low polyreactivity
24 | QVQLVESGGGLVQAGGSLRLSCAASGSTFDGNAMGWYRQAPGKERELVAGISYRGGSTYYADSVKGRFTISRDNAKNTVYLQMNSLKPEDTAVYYCAADDYGYWLFDYWGQGTQVTVSS | low polyreactivity
25 | QVQLVESGGGLVQAGGSLRLSCAASGSTFDGNAMGWYRQAPGKERELVASITQRASNTYYADSVKGRFTISRDNAKNTVDLQMNSLKPEDTAVYYCARQWYWRPVYYIGQGYEYWGQGTQVTVSS | low polyreactivity
26 | QVQLVESGGGLVQAGGSLRLSCAASGSTFDGNAMGWYRQAPGTERELVAAITSGGSTNYADSVKGRFTISRDNAKNTVYLQMNSLKPEDTAVYYCAADTVSFSILYDYWGQGTQVTVSS | low polyreactivity
27 | QVQLVESGGGLVQAGGSLRLSCAASGSTFDGYAMGWYRQAPGKERELVAAITSSSTSTYYADSVKGRFTISRDNAKNTVYLQMYSLKPEDTAVYYCAAQYFSYISVYSFYTMGYWGQGTQVTVSS | low polyreactivity
28 | QVQLVESGGGLVQAGGSLRLSCAASGSTFDHYAMGWYRPAPGKERELVAAISYSGSTTDYADSVKGRFTISRDNAKNTVYLQMNSLKPVDTAVYYFAASGDVIQSPMDYWGQGTQVTVSS | low polyreactivity
29 | QVQLVESGGGLVQAGGSLRLSCAASGSTFDINAMGWYRQAPGKERELVAAITDSGGSTHYADSVKGRFTISRDNAKNTVSLQMNSLKPEDTAVYYCNADDYLVYAGSHYGYWGQGTQVTVSS | low polyreactivity
30 | QVQLVESGGGLVQAGGSLRLSCAASGSTFDIYAMGCYRQAPGKERELVAAITFSGGSTYADSVKGRFTISRDNAKNTVYFQMNSLKPEDTAVYYCAVDGGEFSSYGYWGQGTQVTVSS | low polyreactivity
31 | QVQLVESGGGLVQAGGSLRLSCAASGSTFDIYAMGWYRPAPGKERELVAVISGGDGSTYYADSVKGRFTISRDNAKNTVYLQMNSLKPEDTAVYYCAADYISPGYWDGEYDCWGQGTQVTVSS | low polyreactivity
32 | QVQLVESGGGLVQAGGSLRLSCAASGSTFDIYAMGWYRQAPGKERELVAAISVSDVDTYYADSVKGRFTISRDNAKNTVYLQMNSLKPEDTAVYYCAAETPTHDEWGQGTQVTVSS | high polyreactivity
33 | QVQLVESGGGLVQAGGSLRLSCAASGSTFDIYVMGWYRQAPGKEREFVAAITTTTGRTNYADSVKGRFTISRDYAKNTVYLQMNSLKPEDTAVYYCAAYVTWGKLWYGYWGQGTQVTVSS | high polyreactivity
34 | QVQLVESGGGLVQAGGSLRLSCAASGSTFDKNTMGWYRQAPGKERELVAAISRSGGSTYYADSVKGRYTISRDNAKNTVYLQMNSLKPEDTAVYYCAAQSRYWTYDYWGQGTQVTVSS | high polyreactivity
35 | QVQLVESGGGLVQAGGSLRLSCAASGSTFDKYAMGWYRQAPGKERELVAAISSGSSTSYADSVKGRFTISRDNAKNTVYLQMNSLKPEDTAVYYCAAEVAESIEDDYWGQGTQVTVSS | low polyreactivity
36 | QVQLVESGGGLVQAGGSLRLSCAASGSTFDLYAMGWCRQAPGKEREWVAAITWSGDDTYYADSVKGRFTISRDNATNTVYLQMNSLKPEDTAVYYCAAAYAYWGQGTQVTVSS | low polyreactivity
37 | QVQLVESGGGLVQAGGSLRLSCAASGSTFDLYAMGWYRQAPGKEREFVASISWRGTNTYYADSVKGRFTISRDNAKNTVYLQMISLKPEDTAVYYCYAVRGWTTRYDYWGQGTQVTVSS | high polyreactivity
38 | QVQLVESGGGLVQAGGSLRLSCAASGSTFDNNGMGWYRQAPGKERELVASITFNVGSTYYADSVKGRFTISRDNAKNTVYLQMNSLKPEDTAVYYCAADDLNLSQALGYDYWGQGTQVTVSS | low polyreactivity
39 | QVQLVESGGGLVQAGGSLRLSCAASGSTFDQNAMGWYRPAPGKERELVAAISGSGTRTYYADSVKGLFTISRDNAKKTVYLQMNSLKPEDTAVYYCRTGSGEYDYWGQGTQVTVSS | high polyreactivity
40 | QVQLVESGGGLVQAGGSLRLSCAASGSTFDRYAMGWYRQAPGKERELVAAITRGGSTYYADSVKGRFTISRDNAKNTVYLQMNSLKPEDTAVYYCAARYRAYVKLTSYDWGQGTQVTVSS | high polyreactivity
41 | QVQLVESGGGLVQAGGSLRLSCAASGSTFDSNVMGWYRQAPGKERELVAVINGSGSNTYYADSVKGRFTISRDNAKNTVYLQMNSLKPEDTAVYYCAVERSVYSYYYWGQGTQVTVSS | high polyreactivity
